According to the supplement of paper PMC5998384:

Assays:
HeLa Kyoto [1] = assay: melting temperature (median over replicates), in situ; higher = more thermally stable
HeLa Kyoto [2] = assay: thermal stability score vs G1/S (z-score of summed log2 fold changes over temperatures); higher = more thermally stable than in G1/S
HeLa Kyoto [3] = assay: solubility change mitosis vs G1/S (difference of NP-40 vs SDS log2 ratios) (log2 ratio difference); higher = more soluble in mitosis
HeLa Kyoto [4] = assay: solubility in G1/S (NP-40 vs SDS abundance) (log2 ratio); higher = more soluble; conditions: cell cycle stage: G1/S
[5] = cell cycle stage: early G1 (4.5 h after nocodazole release)
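Throughout, for melting temperature (median over replicates), in situ: HeLa Kyoto cells synchronized by double thymidine or nocodazole block, proteins quantified by TMT10plex mass spectrometry, three independent biological replicates.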
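Throughout, for solubility change mitosis vs G1/S (difference of NP-40 vs SDS log2 ratios): synchronized HeLa Kyoto cells (double thymidine block for G1/S, nocodazole release for mitosis), protein amounts in NP-40 versus SDS lysates quantified by mass spectrometry, three biological replicates.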
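Throughout, for solubility in G1/S (NP-40 vs SDS abundance): HeLa Kyoto cells arrested at G1/S by double thymidine block, proteins quantified by TMT10plex mass spectrometry in mild NP-40 versus SDS extracts, three biological replicates.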
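Throughout, for thermal stability score vs G1/S (z-score of summed log2 fold changes over temperatures): synchronized HeLa Kyoto cells, proteins quantified by TMT10plex mass spectrometry, three biological replicates, mitosis taken 0.5 h after nocodazole release, G1/S directly after double thymidine block.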

Sequence | melting temperature (HeLa Kyoto [1]; cell cycle stage: G1/S) [°C] | melting temperature (HeLa Kyoto [1]; cell cycle stage: mitosis) [°C] | thermal stability score (HeLa Kyoto [2]; [5]) | thermal stability score (HeLa Kyoto [2]; cell cycle stage: mitosis) | solubility change mitosis (log2) (HeLa Kyoto [3]) | solubility in G1/S (log2) (HeLa Kyoto [4])
MVVLSVPAEVTVILLDIEGTTTPIAFVKDILFPYIEENVKEYLQTHWEEEECQQDVSLLRKQAEEDAHLDGAVPIPAASGNGVDDLQQMIQAVVDNVCWQMSLDRKTTALKQLQGHMWRAAFTAGRMKAEFFADVVPAVRKWREAGMKVYIYSSGSVEAQKLLFGHSTEGDILELVDGHFDTKIGHKVESESYRKIADSIGCSTNNILFLTDVTREASAAEEADVHVAVVVRPGNAGLTDDEKTYYSLITSFSELYLPSST [ENOPH1] | 50.6 | 50.7 | 2.1 | 3.35 | -0.175 | 0.267
MVWPWVAMASRWGPLIGLAPCCLWLLGAVLLMDASARPANHSSTRERVANREENEILPPDHLNGVKLEMDGHLNRGFHQEVFLGKDLGGFDEDAEPRRSRRKLMVIFSKVDVNTDRKISAKEMQRWIMEKTAEHFQEAMEESKTHFRAVDPDGDGHVSWDEYKVKFLASKGHSEKEVADAIRLNEELKVDEETQEVLENLKDRWYQADSPPADLLLTEEEFLSFLHPEHSRGMLRFMVKEIVRDLDQDGDKQLSVPEFISLPVGTVENQQGQDIDDNWVKDRKKEFEELIDSNHDGIVTAEELESYMDPMNEYNALNEAKQMIAVADENQNHHLEPEEVLKYSEFFTGSKLVDYARSVHEEF [SDF4] | 52.8 | 53.9 | 2.12 | 3 | -0.0276 | 0.52
MWALCSLLRSAAGRTMSQGRTISQAPARRERPRKDPLRHLRTREKRGPSGCSGGPNTVYLQVVAAGSRDSGAALYVFSEFNRYLFNCGEGVQRLMQEHKLKVARLDNIFLTRMHWSNVGGLSGMILTLKETGLPKCVLSGPPQLEKYLEAIKIFSGPLKGIELAVRPHSAPEYEDETMTVYQIPIHSEQRRGKHQPWQSPERPLSRLSPERSSDSESNENEPHLPHGVSQRRGVRDSSLVVAFICKLHLKRGNFLVLKAKEMGLPVGTAAIAPIIAAVKDGKSITHEGREILAEELCTPPDPGAAFVVVECPDESFIQPICENATFQRYQGKADAPVALVVHMAPASVLVDSRYQQWMERFGPDTQHLVLNENCASVHNLRSHKIQTQLNLIHPDIFPLLTSFRCKKEGPTLSVPMVQGECLLKYQLRPRREWQRDAIITCNPEEFIVEALQLPNFQQSVQEYRRSAQDGPAPAEKRSQYPEIIFLGTGSAIPMKIRNVSATLVNISPDTSLLLDCGEGTFGQLCRHYGDQVDRVLGTLAAVFVSHLHADHHTGLPSILLQRERALASLGKPLHPLLVVAPNQLKAWLQQYHNQCQEVLHHISMIPAKCLQEGAEISSPAVERLISSLLRTCDLEEFQTCLVRHCKHAFGCALVHTSGWKVVYSGDTMPCEALVRMGKDATLLIHEATLEDGLEEEAVEKTHSTTSQAISVGMRMNAEFIMLNHFSQRYAKVPLFSPNFSEKVGVAFDHMKVCFGDFPTMPKLIPPLKALFAGDIEEMEERREKRELRQVRAALLSRELAGGLEDGEPQQKRAHTEEPQAKKVRAQ [ELAC2] | 56.2 | 56.8 | -1.66 | -2.38 | -0.0127 | 0.0837
MWAVLRLALRPCARASPAGPRAYHGDSVASLGTQPDLGSALYQENYKQMKALVNQLHERVEHIKLGGGEKARALHISRGKLLPRERIDNLIDPGSPFLELSQFAGYQLYDNEEVPGGGIITGIGRVSGVECMIIANDATVKGGAYYPVTVKKQLRAQEIAMQNRLPCIYLVDSGGAYLPRQADVFPDRDHFGRTFYNQAIMSSKNIAQIAVVMGSCTAGGAYVPAMADENIIVRKQGTIFLAGPPLVKAATGEEVSAEDLGGADLHCRKSGVSDHWALDDHHALHLTRKVVRNLNYQKKLDVTIEPSEEPLFPADELYGIVGANLKRSFDVREVIARIVDGSRFTEFKAFYGDTLVTGFARIFGYPVGIVGNNGVLFSESAKKGTHFVQLCCQRNIPLLFLQNITGFMVGREYEAEGIAKDGAKMVAAVACAQVPKITLIIGGSYGAGNYGMCGRAYSPRFLYIWPNARISVMGGEQAANVLATITKDQRAREGKQFSSADEAALKEPIIKKFEEEGNPYYSSARVWDDGIIDPADTRLVLGLSFSAALNAPIEKTDFGIFRM [MCCC2] | 53.2 | 53.7 | -3.15 | -2.72 | -0.128 | 0.0208
MWDQGGQPWQQWPLNQQQWMQSFQHQQDPSQIDWAALAQAWIAQREASGQQSMVEQPPGMMPNGQDMSTMESGPNNHGNFQGDSNFNRMWQPEWGMHQQPPHPPPDQPWMPPTPGPMDIVPPSEDSNSQDSGEFAPDNRHIFNQNNHNFGGPPDNFAVGPVNQFDYQHGAAFGPPQGGFHPPYWQPGPPGPPAPPQNRRERPSSFRDRQRSPIALPVKQEPPQIDAVKRRTLPAWIREGLEKMEREKQKKLEKERMEQQRSQLSKKEKKATEDAEGGDGPRLPQRSKFDSDEEEEDTENVEAASSGKVTRSPSPVPQEEHSDPEMTEEEKEYQMMLLTKMLLTEILLDVTDEEIYYVAKDAHRKATKAPAKQLAQSSALASLTGLGGLGGYGSGDSEDERSDRGSESSDTDDEELRHRIRQKQEAFWRKEKEQQLLHDKQMEEEKQQTERVTKEMNEFIHKEQNSLSLLEAREADGDVVNEKKRTPNETTSVLEPKKEHKEKEKQGRSRSGSSSSGSSSSNSRTSSTSSTVSSSSYSSSSGSSRTSSRSSSPKRKKRHSRSRSPTIKARRSRSRSYSRRIKIESNRARVKIRDRRRSNRNSIERERRRNRSPSRERRRSRSRSRDRRTNRASRSRSRDRRKIDDQRGNLSGNSHKHKGEAKEQERKKERSRSIDKDRKKKDKEREREQDKRKEKQKREEKDFKFSSQDDRLKRKRESERTFSRSGSISVKIIRHDSRQDSKKSTTKDSKKHSGSDSSGRSSSESPGSSKEKKAKKPKHSRSRSVEKSQRSGKKASRKHKSKSRSR [PNISR] | 59.9 | 54.5 | -6.44 | -8.27 | 0.456 | -0.83
MWGSDRLAGAGGGGAAVTVAFTNARDCFLHLPRRLVAQLHLLQNQAIEVVWSHQPAFLSWVEGRHFSDQGENVAEINRQVGQKLGLSNGGQVFLKPCSHVVSCQQVEVEPLSADDWEILELHAVSLEQHLLDQIRIVFPKAIFPVWVDQQTYIFIQIVALIPAASYGRLETDTKLLIQPKTRRAKENTFSKADAEYKKLHSYGRDQKGMMKELQTKQLQSNTVGITESNENESEIPVDSSSVASLWTMIGSIFSFQSEKKQETSWGLTEINAFKNMQSKVVPLDNIFRVCKSQPPSIYNASATSVFHKHCAIHVFPWDQEYFDVEPSFTVTYGKLVKLLSPKQQQSKTKQNVLSPEKEKQMSEPLDQKKIRSDHNEEDEKACVLQVVWNGLEELNNAIKYTKNVEVLHLGKVWIPDDLRKRLNIEMHAVVRITPVEVTPKIPRSLKLQPRENLPKDISEEDIKTVFYSWLQQSTTTMLPLVISEEEFIKLETKDGLKEFSLSIVHSWEKEKDKNIFLLSPNLLQKTTIQVLLDPMVKEENSEEIDFILPFLKLSSLGGVNSLGVSSLEHITHSLLGRPLSRQLMSLVAGLRNGALLLTGGKGSGKSTLAKAICKEAFDKLDAHVERVDCKALRGKRLENIQKTLEVAFSEAVWMQPSVVLLDDLDLIAGLPAVPEHEHSPDAVQSQRLAHALNDMIKEFISMGSLVALIATSQSQQSLHPLLVSAQGVHIFQCVQHIQPPNQEQRCEILCNVIKNKLDCDINKFTDLDLQHVAKETGGFVARDFTVLVDRAIHSRLSRQSISTREKLVLTTLDFQKALRGFLPASLRSVNLHKPRDLGWDKIGGLHEVRQILMDTIQLPAKYPELFANLPIRQRTGILLYGPPGTGKTLLAGVIARESRMNFISVKGPELLSKYIGASEQAVRDIFIRAQAAKPCILFFDEFESIAPRRGHDNTGVTDRVVNQLLTQLDGVEGLQGVYVLAATSRPDLIDPALLRPGRLDKCVYCPPPDQVSRLEILNVLSDSLPLADDVDLQHVASVTDSFTGADLKALLYNAQLEALHGMLLSSGLQDGSSSSDSDLSLSSMVFLNHSSGSDDSAGDGECGLDQSLVSLEMSEILPDESKFNMYRLYFGSSYESELGNGTSSDLSSQCLSAPSSMTQDLPGVPGKDQLFSQPPVLRTASQEGCQELTQEQRDQLRADISIIKGRYRSQSGEDESMNQPGPIKTRLAISQSHLMTALGHTRPSISEDDWKNFAELYESFQNPKRRKNQSGTMFRPGQKVTLA [PEX1] | 51.2 | 50.6 | -0.296 | -0.803 | -0.0568 | -0.083
MWIPVVGLPRRLRLSALAGAGRFCILGSEAATRKHLPARNHCGLSDSSPQLWPEPDFRNPPRKASKASLDFKRYVTDRRLAETLAQIYLGKPSRPPHLLLECNPGPGILTQALLEAGAKVVALESDKTFIPHLESLGKNLDGKLRVIHCDFFKLDPRSGGVIKPPAMSSRGLFKNLGIEAVPWTADIPLKVVGMFPSRGEKRALWKLAYDLYSCTSIYKFGRIEVNMFIGEKEFQKLMADPGNPDLYHVLSVIWQLACEIKVLHMEPWSSFDIYTRKGPLENPKRRELLDQLQQKLYLIQMIPRQNLFTKNLTPMNYNIFFHLLKHCFGRRSATVIDHLRSLTPLDARDILMQIGKQEDEKVVNMHPQDFKTLFETIERSKDCAYKWLYDETLEDR [TFB2M] | 50.5 | 50.7 | 0.218 | 1 | -0.038 | 0.194
MWLAAAAPSLARRLLFLGPPPPPLLLLVFSRSSRRRLHSLGLAAMPEKRPFERLPADVSPINYSLCLKPDLLDFTFEGKLEAAAQVRQATNQIVMNCADIDIITASYAPEGDEEIHATGFNYQNEDEKVTLSFPSTLQTGTGTLKIDFVGELNDKMKGFYRSKYTTPSGEVRYAAVTQFEATDARRAFPCWDEPAIKATFDISLVVPKDRVALSNMNVIDRKPYPDDENLVEVKFARTPVMSTYLVAFVVGEYDFVETRSKDGVCVRVYTPVGKAEQGKFALEVAAKTLPFYKDYFNVPYPLPKIDLIAIADFAAGAMENWGLVTYRETALLIDPKNSCSSSRQWVALVVGHELAHQWFGNLVTMEWWTHLWLNEGFASWIEYLCVDHCFPEYDIWTQFVSADYTRAQELDALDNSHPIEVSVGHPSEVDEIFDAISYSKGASVIRMLHDYIGDKDFKKGMNMYLTKFQQKNAATEDLWESLENASGKPIAAVMNTWTKQMGFPLIYVEAEQVEDDRLLRLSQKKFCAGGSYVGEDCPQWMVPITISTSEDPNQAKLKILMDKPEMNVVLKNVKPDQWVKLNLGTVGFYRTQYSSAMLESLLPGIRDLSLPPVDRLGLQNDLFSLARAGIISTVEVLKVMEAFVNEPNYTVWSDLSCNLGILSTLLSHTDFYEEIQEFVKDVFSPIGERLGWDPKPGEGHLDALLRGLVLGKLGKAGHKATLEEARRRFKDHVEGKQILSADLRSPVYLTVLKHGDGTTLDIMLKLHKQADMQEEKNRIERVLGATLLPDLIQKVLTFALSEEVRPQDTVSVIGGVAGGSKHGRKAAWKFIKDNWEELYNRYQGGFLISRLIKLSVEGFAVDKMAGEVKAFFESHPAPSAERTIQQCCENILLNAAWLKRDAESIHQYLLQRKASPPTV [NPEPPS] | 53.9 | 53.6 | -0.503 | -1.51 | -0.148 | 0.0254
MWSGRSSFTSLVVGVFVVYVVHTCWVMYGIVYTRPCSGDANCIQPYLARRPKLQLSVYTTTRSHLGAENNIDLVLNVEDFDVESKFERTVNVSVPKKTRNNGTLYAYIFLHHAGVLPWHDGKQVHLVSPLTTYMVPKPEEINLLTGESDTQQIEAEKKPTSALDEPVSHWRPRLALNVMADNFVFDGSSLPADVHRYMKMIQLGKTVHYLPILFIDQLSNRVKDLMVINRSTTELPLTVSYDKVSLGRLRFWIHMQDAVYSLQQFGFSEKDADEVKGIFVDTNLYFLALTFFVAAFHLLFDFLAFKNDISFWKKKKSMIGMSTKAVLWRCFSTVVIFLFLLDEQTSLLVLVPAGVGAAIELWKVKKALKMTIFWRGLMPEFQFGTYSESERKTEEYDTQAMKYLSYLLYPLCVGGAVYSLLNIKYKSWYSWLINSFVNGVYAFGFLFMLPQLFVNYKLKSVAHLPWKAFTYKAFNTFIDDVFAFIITMPTSHRLACFRDDVVFLVYLYQRWLYPVDKRRVNEFGESYEEKATRAPHTD [CLPTM1L] | 52.8 | 53.2 | -1.1 | -1.25 | -0.226 | -0.0724
